Assay results published in the DeepSol protein solubility set.

Assay: soluble on expression in E. coli; label from the status in PepcDB or PDB records

Sequence | soluble on expression in E. coli
MDIQTRKSILWDAFEELKTRWGADEKFLERVEEEELTVDGLPESKVRDLIELREKYQLDELEFLFIVGTAVGLYQGQKQVKEILQRRMSALNEFVSSLVGREL | not soluble
LKMTKVMVSEAGASVYSASELAAKEFPDLDVSIRGAVSIARRLQDPLAELVKIDPKSIGVGQYQHDVSQLKLARGLDAVVEDCVNAVGVDVNTASVALLARISGLNTTLAQNIVAHRDENGAFKTRAALKKVSRLGEKTFEQAAGFLRVMTGDNPLDSSAVHPEAYPLVQRIAAETDRDIRSLIGDASFLKRLDPKKFTDETF | not soluble
MSLKITQIQAQNKNKNRRNVFVDGSYEFSCDMEIILKYKLKEGLEIDRTKLLQVIDQSKEEFAFRLALNYLSFKSRTSFEIYTYLLKKEYEEKIIEKVIEKLKYYRYVDDNQYVLNYIKTALAEGKKGKDRVQSDLINKKIPQDMIESHMHLFSCETNLEIAKELSNKYFKQNAHLPFNQFKNKLSQFLMRKGFNWEIINTCLNILEQDSEEGHHHHHH | soluble
MSNTQHKLDKTRPPRVQITYDVETGDAETAKELPLVIGVLGEYSSSEKPLRERKFISIDKDNFDEVMASMSPTAHFMVDSVIPGNEGKLDVELRFSCKDDFSPDNVIQQVECLRKLSELRLHLCDLRNRAASNEKLKEKLQELLVTTNGNPENDESKE | not soluble
SHEWYAEKPFMLRSFLDRTVLQQAFESPETLTSLGFLESIGITGHNAELDDDRPEKTDALFAEMKKVKETLLTYDDSDLDESQLLSKEIAMYLLDILLVSEPYRYHNYPVNQLFGIQNGYPSFMDAQHQVNSVGDAENYIARLNKVKVKFSQNLEGLKLREEKGILPPRFVIDRVLEEMTAFVAKPAEENILYSSLKAKLSDAEDISPAEQTRLLNLAKEEIIASVHPAYQLLIDYFNQVADKSTTDDGIWKLPDGDKVYAQALKFFTTTDYSAGEIHNIGLHEVDRIQLDILTILEKENYDVSQGFTAAIETLAAQDEFYYPDTKAGREQILTDYQTILDEINAGLESAFRIRPKASMKVRRIPEFKEKTAPGAYYQQPSIDGSRPGMFFANLYDIKATPKYSMRTLAYHEGIPGHHFQIAIAMELEGMPLFRRISPFTAYTEGWALYTERLAWDLGFQDDPFDNIGRLQAELFRAVRLVVDTGIHHKRWTRQEAIDYMVANTGMAHSDVVSEIERYIVMPGQATSYKIGLMKILELRKKAKASLGDKFDLRDFHDVVLKNGAVPLDILTRLVDQYIADKSS | not soluble
MMHTWFECKIRYEKVMENGMNKKVTEPYLVDALSFTEAEARIIEEITPYISGEFTVSDIKRANYSELFPSEEDAADRWFKCKLFFITLDEKSGAEKKTSTTVLVQASDLRDAVKKLDEGMKGTMADYVIASVAETAIMDVYPYEAEPDVKPEFPDAGKTE | not soluble
MTMLLDGGPQFPGLGVGSFGAPRHHEMPNREPAGMGLNPFGDSTHAAAAAAAAAAFKLSPAAAHDLSSGQSSAFTPQGSGYANALGHHHHHHHHHHHTSQVPSYGGAASAAFNSTREFLFRQRSSGLSEAASGGGQHGLFAGSASSLHAPAGIPEPPSYLLFPGLHEQGAGHPSPTGHVDNNQVHLGLRGELFGRADPYRPVASPRTDPYAAGAQFPNYSPMNMNMGVNVAAHHGPGAFFRYMRQPIKQELSCKWIDEAQLSRPKKSCDRTFSTMHELVTHVTMEHVGGPEQNNHVCYWEECPREGKSFKAKYKLVNHIRVHTGEKPFPCPFPGCGKIFARSENLKIHKRTHTGEKPFKCEFEGCDRRFANSSDRKKHMHVHTSDKPYICKVCDKSYTHPSSLRKHMKVHESQGSDSSPAASSGYESSTPPAIASANSKDTTKTPSAVQTSTSHNPGLPPNFNEWYV | soluble
MIRRENRLRREFIFRKSLEEKQKSLEEKREKIRNALENNTKIDYNLRKDAIELAKGSDWGGQQYETDSEYRWAGAQDPKIVITTSRDPSSRLKMFAKEMKLIFPNAQRINRGHYDVKQVVQASKAQDSTDLIIFTETRGNPDGMLVCHLPFGPTAFFSMANVVMRHDIPNCGTMSEQYPHLIFDNLNSKLGHRFTTILKHLFPVPKPDSKRIITFSNSEDYISFRHHVYKTENDGEVELTEAGPRFELKPYQIKLGTLETLAAAEDEWVLRSYTNTARKRTFLSISRADDDE | not soluble
MAGDCSSHWPVTNPPRGYLSSRRLLEHSTRSIGQTVIHTRDPCDGTGMGVAVIGASMTKFGQRDVWIRELLSQAGEECLTDAGVAPDDVEHLYVSNMASGEFEGQTGIMNLLAHDLGVLPAYSERVDQTSSSGGAGIYEAWQSVASGASEMTLLVGGEKMTHKTTGQATDIIASITHPDEYKHGVTLPSFAGMTARHYLERFDAPRESLARVAVKNHRNGVDNPKAQFQKEITMEKALESPIIADPLRLYDFCPITDGSAALMFTTEERAKEITDEYALVSGIGGATDTHVVHERDDPTIMGGVVESSKQAYEMAGLGPNDLDVAELHDMFTILEFLQLEGIGVADQGTAWEMAMDGVTAKDGELPINTSGGLKSKGHPLGASGVAQGVEIYEQLVGEAGPRQVEADTALACNVGGFGNCVITTIMEAAE | not soluble
MKGAARLAPGRPSPAPAWETSDPYAAALRSGHGPLYLRRTDGWLLPLEVERWCARADAVDLDVLDRCEGAVLDVGCGPGRLVAELAARGRTVLGIDVSEAAVTRTVRLGGQSLRRSVFEPLPGEGRWDTVLLMDGNVGIGGDPRTLLGRVAALLAPGGLLIAETAGSDIDERAHVQVVDVTDGDAAGSPFPWARIGTPALLGHARDTGWRPAAQWTSGERRFVALRSSRSASSSAEPPNSTAVTSSQRARKPSADSPVTPWLEHHHHHH | not soluble
MTDIGAPVTVQVAVDPPYPVVIGTGLLDELEDLLADRHKVAVVHQPGLAETAEEIRKRLAGKGVDAHRIEIPDAEAGKDLPVVGFIWEVLGRIGIGRKDALVSLGGGAATDVAGFAAATWLRGVSIVHLPTTLLGMVDAAVGGKTGINTDAGKNLVGAFHQPLAVLVDLATLQTLPRDEMICGMAEVVKAGFIADPVILDLIEADPQAALDPAGDVLPELIRRAITVKAEVVAADEKESELREILNYGHTLGHAIERRERYRWRHGAAVSVGLVFAAELARLAGRLDDATAQRHRTILSSLGLPVSYDPDALPQLLEIMAGDKKTRAGVLRFVVLDGLAKPGRMVGPDPGLLVTAYAGVCAP | not soluble
MNNIWWQTKGQGNVHLVLLHGWGLNAEVWRCIDEELSSHFTLHLVDLPGFGRSRGFGALSLADMAEAVLQQAPDKAIWLGWSLGGLVASQIALTHPERVQALVTVASSPCFSARDEWPGIKPDVLAGFQQQLSDDFQRTVERFLALQTMGTETARQDARALKKTVLALPMPEVDVLNGGLEILKTVDLRQPLQNVSMPFLRLYGYLDGLVPRKVVPMLDKLWPHSESYIFAKAAHAPFISHPAEFCHLLVALKQRV | soluble
MTPLERYQADLQRPDFFHDAAQANAVKHLQRLYDDLVAADHAKPGLFGKLLGRKSGGPVKGLYFWGGVGRGKTYLVDTFFESLPFEQKVRTHFHRFMKRVHEELKTLKGEKNPLTIIGKRFADEARVICFDEFFVSDITDAMILATLLEELFKNGVSLVATSNIVPDGLYKDGLQRARFLPAIALLKEHTEIVNVDSGVDYRLRALEQAELFHWPLSEQVEEEMARSFKALTPDCAKAQRDEALMIENREIRARLTCDDVAWFEFRELCDGPRSQNDYIELAKIFHAVLISNVEQMGVTKDDMARRFINLVDEFYDRSVKLIISAEVELKDLYSGGRLEFEFQRTLSRLLEMQSHEYLTRPHRPAAALEHHHHHH | not soluble
MPGFNYGGKGDGTGWSSERGSGPEPGGGSHGNSGGHDRGDSSNVGNESVTVMKPGDSYNTPWGKVIINAAGQPTMNGTVMTADNSSMVPYGRGFTRVLNSLVNNPVSLEHHHHHH | soluble
KKPLSVFKGPLLHISPAEELYFGSIESGEKKTLIVLTNVTKNIVAFKVRTTAPEKYRVKPSNSSCDPGASIDIIVSPHGGLTVSAQDRFLIMAAEMEQSSGTGPAELSQFWKEVPRNKVMEHRLRCHTVESSKPNSLML | soluble
GIALVLIAAGLGLARLLLGPEVVAALVQRGNLVQTVVASGHIETPYRVEIASQITGTVKDVLVKEGEQVHQGQQLVAIEASELQASVVQAEGAVAQAQARVRQLRELTKPAADEALKQAQANLLNAQAAYERASKLAASGYGTKATLDDATKNLDVARTQVRTAELQVFTTSPGGSDFVMAETQLGQALANLNTAQARLGYATIVAPRDGVLITRNVERGTVVQPGKALLVLAPAGDIQIVVQIDEKNLGQLALGQHAMASADAYPDKRFDATLSYINPSVDINRASVEIKLKVDDPPDYLRQDMTVSVDIATARRDDVVIVPARAVNDAAAAPYVLKASGGRAVRQPVKLGLRGVGFYEVIDGLVPGDRVIPLATGVKPD | soluble
MGSDKIHHHHHHMSDASKPDSNEVREIRINPVVPGESVLVATARSMRPKKAEELAPRDTRKHVETCPFCRGNEHKTPPAILTWPDTGDWQIRMVENLYPVLGDDRAQAGFTFGLQQTIDGYGRHEVIIDHSEHGIAVQDMAETHLAALFGVYQTRMRQLFDSDERLKYVLVFKNFGPAAGASIPHTHSQVIAMPVVPENVDAEVRNSATHYAKHHHCIFCALIDEALTFEATIYDRNSGAVRRKINVGQYVVERGEKFIAIKPFASRYEWEVHILPLAHQADFLDVRGEDLADLARVMKRTMARLDAVIGGAQYNFFLHSVPHDAQQATHAPSYHWHLEICPRTSIPTGFELGSGLFVNTINPEEAAERLRSVELPAR | not soluble
GPGSMTKLFHHNITAIHEKFQPPFSVDTFRRIARLVLARVEHMPPPDYYDGSAVWRRVRHYMRQWIKKPDPSEVCMVPLLDLVNHSNRPNCGLRVGPSSVVGGKGAITLYSIARINPGQEICRHYNFAINRPNALFRYGFLPFDLISIVEHDAIDEYLVKNQHMLREESEEVRMKQQKEREEIQKLEKIFQHARSGR | not soluble
MGSDKIHHHHHHMTTSEAPQCPYHLKQSLTRRPTAGARPSAAIEVDGNGIYRIHAFQAARDILRSNSVRQAGFMSESARGVRGLGNPPVLFEEGEKHHEMRRSTARYFTPTQVAEYQPMIAALADDLIAELIRRGEMNLDDLSLRLAVNVAARVVGLTSSRVPGLERRVISFVESGGDSEPSSTQPRKSRLESLRQQAKMALFYFLDVKPAIAARRQQRQDDLISHLLDREYNDLEILTECLTYGTAGMVTTREFISVAAWHLLRNPGLRAEYVHGTEPERHAILHEILRLEPVVTMLYRRAEGELTVAGQTIPAGSLLALHLQEANTDPAVAGADAEQLCPGRTLPRGVAPQVLAFGDGHHRCPGAFLAIKESDVFLRRLLVWQDLEIVSEPEVNSNEVVKGYELRGFRVRLGRAARP | not soluble
MGSDKIHHHHHHMSDEWIKIFESDFYVREMIKVWDEGEKWANWIDEVVSKYKLEKKVLDIPCGIGRVSYFLANRGYKVTGIDISERMISMARSNIQNGKFIVGDMRKIKEIIGNEKYDLVINIYNSLGYYSEEDDLKILESLRDSTRKIVVINLDNRDYIIYNRPNEYYTYIPPYLVYSKVEFEQETSRLKIYRKYYLNDKEVGEMIYEQRLYSIHEILALLKKAGLQPIEVLSGYSWKKFSIMDPEMTIIATPA | not soluble
VTLNTIALELVPPNLEGGKERAIEDARKVVQYSAASGLDGRIRHVMMPGMIAEDDDRPIPMQPKLDVLDFWSIIKPELAGVHGLCTQVTAFMDEPSLHRRLVDLSDAGMEGIVFVGVPRTMQDGEGSGVAPTDALSLYRQLVANRGVIVIPTRDGEQGRLNFKCSRGATYGMTQLLYSDAIVGFLREFARTTEHRPEILLSFGFVPKVETRIGLINWLIQDPGNAAVADEQAFVQKLAGSEPARRRRLMVDLYKRVLDGVADLGFPLSIHLEATYGVSAAAFETFAEMLAYWSPAEPGKPD | not soluble
